Source: article doi:10.1101/2022.09.15.508097 (bioRxiv, 2022)

T1: TetR-EYFP-ZNF518B^344–1074 (human, UniProt Q9C0D4 344-1074)
T1 sequence: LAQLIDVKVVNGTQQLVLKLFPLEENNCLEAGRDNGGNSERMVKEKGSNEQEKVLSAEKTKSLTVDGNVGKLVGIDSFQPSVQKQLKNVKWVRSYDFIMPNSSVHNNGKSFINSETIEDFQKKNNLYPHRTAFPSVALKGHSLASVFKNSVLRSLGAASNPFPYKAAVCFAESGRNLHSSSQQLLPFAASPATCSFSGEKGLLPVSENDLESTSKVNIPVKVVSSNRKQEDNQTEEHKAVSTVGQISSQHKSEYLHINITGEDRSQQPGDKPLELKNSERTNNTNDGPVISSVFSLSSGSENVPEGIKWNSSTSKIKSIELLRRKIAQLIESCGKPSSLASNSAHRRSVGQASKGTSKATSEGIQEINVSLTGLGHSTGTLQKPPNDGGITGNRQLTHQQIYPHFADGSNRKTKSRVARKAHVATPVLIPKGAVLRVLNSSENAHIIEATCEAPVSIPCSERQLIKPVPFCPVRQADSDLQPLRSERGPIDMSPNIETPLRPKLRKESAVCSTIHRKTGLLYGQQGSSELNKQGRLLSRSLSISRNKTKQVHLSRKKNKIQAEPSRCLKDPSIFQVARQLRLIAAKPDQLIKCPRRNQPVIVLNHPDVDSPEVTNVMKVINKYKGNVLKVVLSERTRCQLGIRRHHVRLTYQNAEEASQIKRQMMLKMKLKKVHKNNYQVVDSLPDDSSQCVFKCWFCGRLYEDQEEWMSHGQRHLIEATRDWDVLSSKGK

T2: TetR-EYFP-ZNF518B^WT (human, UniProt Q9C0D4 1-1074)
T2 sequence: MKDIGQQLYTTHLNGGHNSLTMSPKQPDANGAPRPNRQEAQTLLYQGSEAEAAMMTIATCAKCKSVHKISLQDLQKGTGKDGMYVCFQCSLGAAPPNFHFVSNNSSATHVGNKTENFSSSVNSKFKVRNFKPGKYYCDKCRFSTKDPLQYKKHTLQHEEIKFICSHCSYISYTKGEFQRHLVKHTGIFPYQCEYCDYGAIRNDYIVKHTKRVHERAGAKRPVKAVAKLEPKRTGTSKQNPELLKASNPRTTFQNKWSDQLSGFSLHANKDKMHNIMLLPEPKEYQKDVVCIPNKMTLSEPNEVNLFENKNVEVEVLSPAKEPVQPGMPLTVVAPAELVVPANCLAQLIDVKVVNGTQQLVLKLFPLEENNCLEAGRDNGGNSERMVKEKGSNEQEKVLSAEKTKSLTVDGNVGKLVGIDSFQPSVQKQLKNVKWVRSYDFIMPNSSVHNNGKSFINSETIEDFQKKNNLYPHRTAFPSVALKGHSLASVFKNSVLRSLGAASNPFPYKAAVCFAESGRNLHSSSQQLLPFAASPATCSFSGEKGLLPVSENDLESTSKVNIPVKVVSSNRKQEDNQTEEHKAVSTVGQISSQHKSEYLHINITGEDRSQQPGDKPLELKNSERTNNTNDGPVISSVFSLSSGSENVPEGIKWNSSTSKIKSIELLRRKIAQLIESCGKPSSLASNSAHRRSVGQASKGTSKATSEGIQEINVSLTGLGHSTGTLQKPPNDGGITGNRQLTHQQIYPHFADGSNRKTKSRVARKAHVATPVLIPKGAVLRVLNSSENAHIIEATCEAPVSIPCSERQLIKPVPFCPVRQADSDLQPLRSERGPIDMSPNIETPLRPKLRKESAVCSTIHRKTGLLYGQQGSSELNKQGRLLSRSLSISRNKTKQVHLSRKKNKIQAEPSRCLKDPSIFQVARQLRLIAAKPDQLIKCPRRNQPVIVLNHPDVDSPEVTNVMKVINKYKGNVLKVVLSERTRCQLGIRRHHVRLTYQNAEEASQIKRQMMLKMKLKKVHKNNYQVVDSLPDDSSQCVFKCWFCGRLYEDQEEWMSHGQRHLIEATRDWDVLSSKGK

T3: TetR-EYFP-ZNF518B^344–987 (human, UniProt Q9C0D4 344-987)
T3 sequence: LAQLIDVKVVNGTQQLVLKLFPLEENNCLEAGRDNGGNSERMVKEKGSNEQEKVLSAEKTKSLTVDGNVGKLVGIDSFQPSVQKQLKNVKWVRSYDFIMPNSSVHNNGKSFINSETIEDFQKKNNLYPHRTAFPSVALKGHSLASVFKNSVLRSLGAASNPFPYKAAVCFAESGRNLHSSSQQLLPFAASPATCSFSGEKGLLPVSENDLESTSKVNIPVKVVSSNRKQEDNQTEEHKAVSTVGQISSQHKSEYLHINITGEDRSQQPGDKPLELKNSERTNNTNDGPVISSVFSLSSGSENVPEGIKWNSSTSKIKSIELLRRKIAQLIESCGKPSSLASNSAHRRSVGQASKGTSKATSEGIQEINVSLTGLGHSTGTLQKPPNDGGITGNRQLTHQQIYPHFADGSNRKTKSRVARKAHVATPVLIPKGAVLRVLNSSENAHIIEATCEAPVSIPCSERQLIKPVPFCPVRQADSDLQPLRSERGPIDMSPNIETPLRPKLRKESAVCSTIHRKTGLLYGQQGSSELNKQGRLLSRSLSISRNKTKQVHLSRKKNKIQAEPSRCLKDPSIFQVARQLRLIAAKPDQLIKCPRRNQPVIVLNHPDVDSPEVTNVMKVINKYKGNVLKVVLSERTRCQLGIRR

T4: TetR-EYFP-ZNF518B^770–987 (human, UniProt Q9C0D4 770-987)
T4 sequence: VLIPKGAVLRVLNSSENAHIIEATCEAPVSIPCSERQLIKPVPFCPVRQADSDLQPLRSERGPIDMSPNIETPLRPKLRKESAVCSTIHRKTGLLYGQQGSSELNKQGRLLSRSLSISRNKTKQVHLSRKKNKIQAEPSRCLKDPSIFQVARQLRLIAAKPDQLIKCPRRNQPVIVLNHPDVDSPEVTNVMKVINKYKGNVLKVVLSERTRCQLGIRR

T5: TetR-EYFP-ZNF518B^878–1074 (human, UniProt Q9C0D4 878-1074)
T5 sequence: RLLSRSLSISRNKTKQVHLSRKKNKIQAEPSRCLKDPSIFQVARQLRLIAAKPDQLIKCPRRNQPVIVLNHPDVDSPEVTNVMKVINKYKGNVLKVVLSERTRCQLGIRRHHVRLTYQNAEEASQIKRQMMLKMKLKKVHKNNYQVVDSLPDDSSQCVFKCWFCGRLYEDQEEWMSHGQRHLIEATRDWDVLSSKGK

T6: TetR-EYFP-ZNF518B^555–1074 (human, UniProt Q9C0D4 555-1074)
T6 sequence: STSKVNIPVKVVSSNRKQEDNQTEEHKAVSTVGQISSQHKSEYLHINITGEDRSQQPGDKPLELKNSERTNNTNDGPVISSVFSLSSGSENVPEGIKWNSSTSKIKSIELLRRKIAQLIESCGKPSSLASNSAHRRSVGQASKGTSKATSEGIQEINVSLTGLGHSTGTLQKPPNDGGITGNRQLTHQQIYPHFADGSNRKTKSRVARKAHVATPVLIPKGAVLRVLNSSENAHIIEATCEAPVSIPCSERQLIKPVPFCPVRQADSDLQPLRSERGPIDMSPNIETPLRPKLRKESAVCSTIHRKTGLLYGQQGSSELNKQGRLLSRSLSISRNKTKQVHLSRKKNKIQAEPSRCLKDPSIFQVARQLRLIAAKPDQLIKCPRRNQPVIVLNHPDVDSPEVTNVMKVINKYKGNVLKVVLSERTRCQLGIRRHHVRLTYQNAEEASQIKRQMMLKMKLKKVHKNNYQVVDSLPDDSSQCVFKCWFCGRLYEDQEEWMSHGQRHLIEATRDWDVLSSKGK

T7: TetR-EYFP-ZNF518B^878–987 (human, UniProt Q9C0D4 878-987)
T7 sequence: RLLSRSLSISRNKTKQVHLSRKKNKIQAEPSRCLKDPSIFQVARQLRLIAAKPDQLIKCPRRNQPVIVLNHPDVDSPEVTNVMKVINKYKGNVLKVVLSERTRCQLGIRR

T8: HAT-MBP-ZNF518B^770–987 (human, UniProt Q9C0D4 770-987)
T8 sequence: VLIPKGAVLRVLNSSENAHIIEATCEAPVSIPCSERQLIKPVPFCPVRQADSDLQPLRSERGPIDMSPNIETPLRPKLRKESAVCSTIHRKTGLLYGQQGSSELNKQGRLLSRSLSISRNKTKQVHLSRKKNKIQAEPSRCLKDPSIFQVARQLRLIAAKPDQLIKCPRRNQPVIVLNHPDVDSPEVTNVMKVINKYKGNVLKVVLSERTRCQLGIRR


How the values were obtained:
[1] = biological target: T1, TetR-EYFP-ZNF518B^344–1074; experiment: fluorescence microscopy-based interaction-trap
TetR-EYFP-ZNF518B^WT = biological target: T2, TetR-EYFP-ZNF518B^WT; experiment: fluorescence microscopy-based interaction-trap
[2] = biological target: T3, TetR-EYFP-ZNF518B^344–987; experiment: fluorescence microscopy-based interaction-trap
[3] = biological target: T4, TetR-EYFP-ZNF518B^770–987; experiment: fluorescence microscopy-based interaction-trap
[4] = biological target: T5, TetR-EYFP-ZNF518B^878–1074; experiment: fluorescence microscopy-based interaction-trap
[5] = biological target: T6, TetR-EYFP-ZNF518B^555–1074; experiment: fluorescence microscopy-based interaction-trap
[6] = biological target: T7, TetR-EYFP-ZNF518B^878–987; experiment: fluorescence microscopy-based interaction-trap
HAT-MBP-ZNF518B^770–987 = biological target: T8, HAT-MBP-ZNF518B^770–987; experiment: pull-down

Binder	% of cells with recruitment to alphoid^tetO [1] [%]	% of cells with recruitment to alphoid^tetO (TetR-EYFP-ZNF518B^WT) [%]	% of cells with recruitment to alphoid^tetO [2] [%]	% of cells with recruitment to alphoid^tetO [3] [%]	% of cells with recruitment to alphoid^tetO [4] [%]	% of cells with recruitment to alphoid^tetO [5] [%]	% of cells with recruitment to alphoid^tetO [6] [%]	binding result (HAT-MBP-ZNF518B^770–987)
Halo-HP1β (natural protein, Halo Tag TMR ligand on the Halo tag) not shown	> 75	58	> 75	> 75	> 75	> 75	> 75	–
Halo-HP1γ (natural protein, Halo Tag TMR ligand on the Halo tag) not shown	> 75	–	> 75	> 75	> 75	> 75	> 75	–
His6-GST-HP1β (natural protein) not shown	–	–	–	–	–	–	–	binds
His6-GST-HP1γ (natural protein) not shown	–	–	–	–	–	–	–	binds
